Source: PMC6193675

Target: VRC01
Assay: FACS; competition with YU2 gp120dsm for 3 nM VRC01

Bal gp120
Ki: 5 nM
